Residue numbers refer to the chain shown, from its start. Numbers in names are those of the source.
B1: parental humanized anti-CTLA4 antibody 1 (antibody, human IgG1, kappa)
light: DIVMTQTPLSLSVTPGQPASISCRSSQSLLNSDGNTYLYWYLQKPGQSPQLLIYLVSKLGSGVPNRFSGSGSGTDFTLKISRVEAEDVGVYYCVQGTHDPWTFGGGTKVEIKRTVAAPSVFIFPPSDEQLKSGTASVVCLLNNFYPREAKVQWKVDNALQSGNSQESVTEQDSKDSTYSLSSTLTLSKADYEKHKVYACEVTHQGLSSPVTKSFNRGEC
heavy: not shown
notes: Humanized IgG1
B2: Antibody 2-10 (antibody, human IgG1, kappa)
light: ACPFPALELCGGGSSGGSGGSGGSGSGGEIVLTQSPDFQSVTPKEKVTITCSANSALSYMYWYQQKPDQSPKLWVHGTSNLASGVPSRFSGSGSGTDFTLTINSLEAEDAATYYCHHWSNTQWTFGGGTKVEIKRTVAAPSVFIFPPSDEQLKSGTASVVCLLNNFYPREAKVQWKVDNALQSGNSQESVTEQDSKDSTYSLSSTLTLSKADYEKHKVYACEVTHQGLSSPVTKSFNRGEC
heavy: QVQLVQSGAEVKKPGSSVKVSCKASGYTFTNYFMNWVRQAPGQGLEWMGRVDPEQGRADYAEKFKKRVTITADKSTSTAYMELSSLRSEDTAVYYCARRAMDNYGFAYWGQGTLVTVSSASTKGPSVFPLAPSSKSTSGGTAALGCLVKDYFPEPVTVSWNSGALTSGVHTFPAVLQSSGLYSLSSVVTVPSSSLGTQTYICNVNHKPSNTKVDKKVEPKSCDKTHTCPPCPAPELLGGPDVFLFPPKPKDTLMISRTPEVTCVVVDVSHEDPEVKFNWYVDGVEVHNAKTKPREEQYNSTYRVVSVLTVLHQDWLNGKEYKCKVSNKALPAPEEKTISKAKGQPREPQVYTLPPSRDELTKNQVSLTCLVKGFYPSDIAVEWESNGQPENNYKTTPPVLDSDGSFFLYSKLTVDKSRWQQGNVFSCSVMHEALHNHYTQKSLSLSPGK
notes: also called non-cleavable masked Antibody 2-10
B3: Antibody 2-7 (antibody, human IgG1, kappa)
light: ACPFPALELCGGSGGSVPLSLYSGGEIVLTQSPDFQSVTPKEKVTITCSANSALSYMYWYQQKPDQSPKLWVHGTSNLASGVPSRFSGSGSGTDFTLTINSLEAEDAATYYCHHWSNTQWTFGGGTKVEIKRTVAAPSVFIFPPSDEQLKSGTASVVCLLNNFYPREAKVQWKVDNALQSGNSQESVTEQDSKDSTYSLSSTLTLSKADYEKHKVYACEVTHQGLSSPVTKSFNRGEC
heavy: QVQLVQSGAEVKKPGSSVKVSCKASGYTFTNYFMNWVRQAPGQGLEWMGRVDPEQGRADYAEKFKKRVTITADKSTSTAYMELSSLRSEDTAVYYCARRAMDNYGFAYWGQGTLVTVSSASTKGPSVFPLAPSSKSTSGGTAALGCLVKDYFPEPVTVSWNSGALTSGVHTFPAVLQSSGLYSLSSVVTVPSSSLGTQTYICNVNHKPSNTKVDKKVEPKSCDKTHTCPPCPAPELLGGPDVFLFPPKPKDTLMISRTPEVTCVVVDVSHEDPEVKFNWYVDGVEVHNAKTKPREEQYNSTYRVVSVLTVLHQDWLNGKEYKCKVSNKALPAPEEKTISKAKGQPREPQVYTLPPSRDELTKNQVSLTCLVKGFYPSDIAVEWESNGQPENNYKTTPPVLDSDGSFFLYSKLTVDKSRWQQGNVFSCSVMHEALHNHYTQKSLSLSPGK
B4: Antibody 1-1 (antibody, V domains shown)
VL: DIVMTQTPLSLSVTPGQPASISCRSSQSLLNSDGNTYLYWYLQKPGQSPQLLIYLVSKLGSGVPNRFSGSGSGTDFTLKISRVEAEDVGVYYCVQGTHDPWTFGGGTKVEIKR
VH: QVQLQESGPGLVKPSETLSLTCSVTYHTITSGYDWTWIRKPPGKGMEWIGYISYSGNTNYNPSLKSRVTISRDTSKNQFFLKLSSVTAADTAVYYCASMMVPHYYVMDAWGQGTLVTVSSA
notes: Humanized; wild type Fc region; Variable domains are stated for Antibody 1; full chains are not tied to the label Antibody 1-1; also called version of Antibody 1 having a wild type Fc region
B5: Antibody 2-1 (antibody, V domains shown)
VL: EIVLTQSPDFQSVTPKEKVTITCSANSALSYMYWYQQKPDQSPKLWVHGTSNLASGVPSRFSGSGSGTDFTLTINSLEAEDAATYYCHHWSNTQWTFGGGTKVEIKR
VH: QVQLVQSGAEVKKPGSSVKVSCKASGYTFTNYFMNWVRQAPGQGLEWMGRVDPEQGRADYAEKFKKRVTITADKSTSTAYMELSSLRSEDTAVYYCARRAMDNYGFAYWGQGTLVTVSSA
notes: Wild-type Fc region; Variable domains are stated for Antibody 2-6, another version of Antibody 2 that differs in the Fc region only; also called version of Antibody 2 having a wild-type Fc region
B6: Antibody 2-4 (antibody, V domains shown)
VL: B5 VL
VH: B5 VH
notes: Fc with S239D, I332E, A330L; also called version of Antibody 2 having S239D, I332E, and A330L mutations in the Fc region
B7: Antibody 2-2 (antibody, V domains shown)
VL: B5 VL
VH: B5 VH
notes: Fc region with S239D and I332E; also called version of Antibody 2 having a S239D mutation and an I332E mutation in the Fc region; unmasked Antibody 2-2
B8: Antibody 2-5 (antibody, V domains shown)
VL: B5 VL
VH: B5 VH
notes: see m21; also called version of Antibody 2 having S239D, I332E, A330L mutations in the Fc region, and two hinge region mutations
B9: Antibody 2-3 (antibody, V domains shown)
VL: B5 VL
VH: B5 VH
notes: see m21; also called version of Antibody 2 having a S239D mutation, an I332E mutation in the Fc region, and two hinge region mutations
B10: Antibody 1-2 (antibody, human IgG1, kappa)
light: B1 light
heavy: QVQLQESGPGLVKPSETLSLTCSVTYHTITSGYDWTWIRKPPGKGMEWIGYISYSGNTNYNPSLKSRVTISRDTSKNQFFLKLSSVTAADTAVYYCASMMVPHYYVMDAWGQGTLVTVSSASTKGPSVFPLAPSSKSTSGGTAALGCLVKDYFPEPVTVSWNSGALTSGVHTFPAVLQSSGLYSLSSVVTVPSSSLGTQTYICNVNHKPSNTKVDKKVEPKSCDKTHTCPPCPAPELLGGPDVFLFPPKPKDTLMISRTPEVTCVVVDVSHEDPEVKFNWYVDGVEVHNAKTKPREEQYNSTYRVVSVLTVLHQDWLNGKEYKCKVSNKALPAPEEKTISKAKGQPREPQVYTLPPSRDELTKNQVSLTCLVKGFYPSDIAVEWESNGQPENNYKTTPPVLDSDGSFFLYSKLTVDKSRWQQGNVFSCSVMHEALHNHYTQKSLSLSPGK
notes: also called version of Antibody 1 having a S239D mutation and an I332E mutation in the Fc region
B11: Antibody 2-8 (antibody, human IgG1, kappa)
light: ACPFPALELCGGPGSSPMPYDLYHPSGGEIVLTQSPDFQSVTPKEKVTITCSANSALSYMYWYQQKPDQSPKLWVHGTSNLASGVPSRFSGSGSGTDFTLTINSLEAEDAATYYCHHWSNTQWTFGGGTKVEIKRTVAAPSVFIFPPSDEQLKSGTASVVCLLNNFYPREAKVQWKVDNALQSGNSQESVTEQDSKDSTYSLSSTLTLSKADYEKHKVYACEVTHQGLSSPVTKSFNRGEC
heavy: not shown
B12: Antibody 2-9 (antibody, human IgG1, kappa)
light: B3 light with G14S, G15P, S16P, V17H, P18E, L19Q, S20L, L21T, Y22V
heavy: not shown
B13: Antibody 2-11 (antibody, human IgG1, kappa)
light: ACPFPALELCSSPSPSGGGGIGQLTASGGEIVLTQSPDFQSVTPKEKVTITCSANSALSYMYWYQQKPDQSPKLWVHGTSNLASGVPSRFSGSGSGTDFTLTINSLEAEDAATYYCHHWSNTQWTFGGGTKVEIKRTVAAPSVFIFPPSDEQLKSGTASVVCLLNNFYPREAKVQWKVDNALQSGNSQESVTEQDSKDSTYSLSSTLTLSKADYEKHKVYACEVTHQGLSSPVTKSFNRGEC
heavy: not shown
B14: Antibody 2-12 (antibody, human IgG1, kappa)
light: ACPFPALELCGSPGSPKPILFFRLSGGEIVLTQSPDFQSVTPKEKVTITCSANSALSYMYWYQQKPDQSPKLWVHGTSNLASGVPSRFSGSGSGTDFTLTINSLEAEDAATYYCHHWSNTQWTFGGGTKVEIKRTVAAPSVFIFPPSDEQLKSGTASVVCLLNNFYPREAKVQWKVDNALQSGNSQESVTEQDSKDSTYSLSSTLTLSKADYEKHKVYACEVTHQGLSSPVTKSFNRGEC
heavy: not shown
B15: Antibody 2-13 (antibody, human IgG1, kappa)
light: ACPFPALELCGGSSPPRAAAVKSPSGGEIVLTQSPDFQSVTPKEKVTITCSANSALSYMYWYQQKPDQSPKLWVHGTSNLASGVPSRFSGSGSGTDFTLTINSLEAEDAATYYCHHWSNTQWTFGGGTKVEIKRTVAAPSVFIFPPSDEQLKSGTASVVCLLNNFYPREAKVQWKVDNALQSGNSQESVTEQDSKDSTYSLSSTLTLSKADYEKHKVYACEVTHQGLSSPVTKSFNRGEC
heavy: not shown
B16: Antibody 2-16 (antibody, human IgG1, kappa)
light: ACPFPALELCSSGGSGPDSGGFMLTSGGEIVLTQSPDFQSVTPKEKVTITCSANSALSYMYWYQQKPDQSPKLWVHGTSNLASGVPSRFSGSGSGTDFTLTINSLEAEDAATYYCHHWSNTQWTFGGGTKVEIKRTVAAPSVFIFPPSDEQLKSGTASVVCLLNNFYPREAKVQWKVDNALQSGNSQESVTEQDSKDSTYSLSSTLTLSKADYEKHKVYACEVTHQGLSSPVTKSFNRGEC
heavy: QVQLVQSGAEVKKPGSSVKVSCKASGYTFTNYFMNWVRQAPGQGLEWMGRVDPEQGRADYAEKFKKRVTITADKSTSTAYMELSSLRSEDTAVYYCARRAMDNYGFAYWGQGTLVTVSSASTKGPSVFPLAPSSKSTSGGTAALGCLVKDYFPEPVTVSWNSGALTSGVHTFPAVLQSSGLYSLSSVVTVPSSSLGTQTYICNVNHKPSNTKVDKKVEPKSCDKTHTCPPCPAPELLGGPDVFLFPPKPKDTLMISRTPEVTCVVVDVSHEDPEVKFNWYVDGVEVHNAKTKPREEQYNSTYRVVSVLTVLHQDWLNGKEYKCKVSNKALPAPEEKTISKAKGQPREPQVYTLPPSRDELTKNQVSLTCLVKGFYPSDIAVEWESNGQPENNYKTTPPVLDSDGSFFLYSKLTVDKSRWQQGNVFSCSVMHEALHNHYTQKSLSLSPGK
B17: Antibody 2-8 (Activated) (antibody, not shown: small tags and cut ends)
light: EIVLTQSPDFQSVTPKEKVTITCSANSALSYMYWYQQKPDQSPKLWVHGTSNLASGVPSRFSGSGSGTDFTLTINSLEAEDAATYYCHHWSNTQWTFGGGTKVEIKRTVAAPSVFIFPPSDEQLKSGTASVVCLLNNFYPREAKVQWKVDNALQSGNSQESVTEQDSKDSTYSLSSTLTLSKADYEKHKVYACEVTHQGLSSPVTKSFNRGEC
heavy: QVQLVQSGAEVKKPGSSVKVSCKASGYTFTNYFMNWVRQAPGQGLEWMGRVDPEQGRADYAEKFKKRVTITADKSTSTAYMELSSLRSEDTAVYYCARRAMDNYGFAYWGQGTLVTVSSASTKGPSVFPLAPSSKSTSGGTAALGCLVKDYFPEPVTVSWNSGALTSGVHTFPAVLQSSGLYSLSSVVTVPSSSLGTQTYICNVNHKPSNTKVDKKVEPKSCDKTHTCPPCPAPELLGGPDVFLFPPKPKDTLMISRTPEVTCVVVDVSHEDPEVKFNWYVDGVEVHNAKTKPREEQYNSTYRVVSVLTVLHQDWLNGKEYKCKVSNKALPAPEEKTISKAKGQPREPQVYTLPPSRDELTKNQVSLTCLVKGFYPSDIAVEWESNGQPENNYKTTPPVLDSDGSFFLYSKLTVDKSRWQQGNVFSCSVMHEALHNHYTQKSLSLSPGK
B18: Antibody 2-12 (Activated) (antibody, not shown: small tags and cut ends)
light: B17 light
heavy: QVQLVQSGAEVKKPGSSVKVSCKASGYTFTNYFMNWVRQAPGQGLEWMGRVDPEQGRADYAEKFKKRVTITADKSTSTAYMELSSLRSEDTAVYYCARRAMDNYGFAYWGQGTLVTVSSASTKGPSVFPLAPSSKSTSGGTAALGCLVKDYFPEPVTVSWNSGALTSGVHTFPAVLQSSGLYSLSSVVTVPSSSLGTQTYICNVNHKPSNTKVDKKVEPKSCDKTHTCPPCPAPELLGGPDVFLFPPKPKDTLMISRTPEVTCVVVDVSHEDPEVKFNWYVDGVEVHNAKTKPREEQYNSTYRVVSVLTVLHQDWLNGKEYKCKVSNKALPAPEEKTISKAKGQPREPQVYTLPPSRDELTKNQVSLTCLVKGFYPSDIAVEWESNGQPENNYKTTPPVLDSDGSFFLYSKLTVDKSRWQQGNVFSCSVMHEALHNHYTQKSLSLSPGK
B19: Antibody 2-11 (Activated) (antibody, not shown: small tags and cut ends)
light: B17 light
heavy: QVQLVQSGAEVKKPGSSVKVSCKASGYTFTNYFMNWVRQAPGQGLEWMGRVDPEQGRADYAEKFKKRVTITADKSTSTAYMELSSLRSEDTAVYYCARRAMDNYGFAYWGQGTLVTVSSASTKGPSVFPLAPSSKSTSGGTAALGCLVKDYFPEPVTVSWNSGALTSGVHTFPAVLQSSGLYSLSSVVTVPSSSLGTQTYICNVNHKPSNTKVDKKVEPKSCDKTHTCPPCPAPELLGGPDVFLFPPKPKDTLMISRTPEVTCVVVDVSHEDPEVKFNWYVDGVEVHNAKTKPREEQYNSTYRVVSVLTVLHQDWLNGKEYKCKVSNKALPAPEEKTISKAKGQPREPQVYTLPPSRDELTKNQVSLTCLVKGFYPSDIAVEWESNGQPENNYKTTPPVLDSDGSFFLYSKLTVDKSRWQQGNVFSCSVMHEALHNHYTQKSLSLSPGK
B20: Antibody 2-13 (Activated) (antibody, not shown: small tags and cut ends)
light: B17 light
heavy: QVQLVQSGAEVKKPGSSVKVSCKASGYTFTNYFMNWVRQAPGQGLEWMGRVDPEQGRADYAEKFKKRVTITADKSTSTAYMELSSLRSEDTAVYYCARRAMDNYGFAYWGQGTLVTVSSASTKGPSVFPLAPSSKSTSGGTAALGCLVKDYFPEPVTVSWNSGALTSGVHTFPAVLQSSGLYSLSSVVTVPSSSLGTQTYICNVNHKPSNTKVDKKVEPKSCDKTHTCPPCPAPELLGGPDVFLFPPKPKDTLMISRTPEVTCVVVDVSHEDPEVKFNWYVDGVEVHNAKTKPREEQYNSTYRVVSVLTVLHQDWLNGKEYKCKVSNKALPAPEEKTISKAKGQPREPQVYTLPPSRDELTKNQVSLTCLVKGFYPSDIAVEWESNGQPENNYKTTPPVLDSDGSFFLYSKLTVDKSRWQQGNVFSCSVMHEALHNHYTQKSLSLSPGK
B21: Antibody 2-9 (Activated) (antibody)
light: B17 light
heavy: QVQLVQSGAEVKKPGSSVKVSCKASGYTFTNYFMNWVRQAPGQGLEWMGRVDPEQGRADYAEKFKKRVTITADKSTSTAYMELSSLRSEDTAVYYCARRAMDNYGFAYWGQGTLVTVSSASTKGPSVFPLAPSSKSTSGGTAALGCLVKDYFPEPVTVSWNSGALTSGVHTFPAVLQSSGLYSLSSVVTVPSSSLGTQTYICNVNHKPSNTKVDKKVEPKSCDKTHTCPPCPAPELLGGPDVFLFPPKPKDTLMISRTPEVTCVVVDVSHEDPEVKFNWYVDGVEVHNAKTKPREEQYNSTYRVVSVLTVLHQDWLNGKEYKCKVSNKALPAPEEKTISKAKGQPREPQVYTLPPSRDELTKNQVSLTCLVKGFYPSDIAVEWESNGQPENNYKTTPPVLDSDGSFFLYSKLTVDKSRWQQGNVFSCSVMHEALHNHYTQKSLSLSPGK
notes: not shown: remnant of the cleaved linker (part of HEQLTV and spacer SGG)

Biological target: T1, human CTLA4-Fc (R&D Systems, #7268-CT) (human, UniProt P16410 36-162)
T1 construct: Bought; not shown: Fc part
Test: ELISA: plate coated with human CTLA4-Fc (R&D Systems), detection anti-huKappa-HRP, chemiluminescence; signal as fraction of the parental antibody's RLU (Example 5)

T1 sequence (P16410 36-162 limits assumed): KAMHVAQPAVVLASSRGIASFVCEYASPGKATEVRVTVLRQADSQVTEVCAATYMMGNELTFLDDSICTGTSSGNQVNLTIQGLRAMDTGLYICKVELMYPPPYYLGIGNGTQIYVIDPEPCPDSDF

Row | EC50 (read off the curve) | Binder
1 | ~0.7 nM | B1

Biological target: T1, human CTLA4-Fc (R&D Systems, #7268-CT)
Test: ELISA, human CTLA4-Fc coated; protease -

Row | EC50 | Binder
2 | 29.4 nM | B2
3 | 33.9 nM | B3

Biological target: T1, human CTLA4-Fc (R&D Systems, #7268-CT)
Test: low density antigen binding ELISA, human CTLA4-Fc coated at 1 µg/mL, anti-human kappa-HRP

Row | EC50 | Binder
4 | 0.32 nM | B4
5 | 0.44 nM | B5
6 | 0.4 nM | B6
7 | 0.39 nM | B7
8 | 0.41 nM | B8
9 | 0.4 nM | B9
10 | 0.32 nM | B10

Biological target: T1, human CTLA4-Fc (R&D Systems, #7268-CT)
Test: CTLA4 ELISA (luminescence) after culture of the non-cleavable masked antibody in RPMI as control

Row | EC50 (read off the curve) | Binder
11 | ~8 nM | B2

Biological target: T1, human CTLA4-Fc (R&D Systems, #7268-CT)
Test: low density antigen binding ELISA, human CTLA4-Fc coated; no protease

Row | EC50 | Binder
12 | 29.4 nM | B2
13 | 54.8 nM | B11
14 | 33.9 nM | B3
15 | 48.9 nM | B12
16 | 34.9 nM | B13
17 | 3.3 nM | B14
18 | 14.2 nM | B15

Biological target: T1, human CTLA4-Fc (R&D Systems, #7268-CT)
Test: CTLA4 ELISA (luminescence) after culture of the masked antibody in RPMI as control

Row | EC50 (read off the curve) | Binder
19 | ~6 nM | B16

Biological target: T1, human CTLA4-Fc (R&D Systems, #7268-CT)
Test: low density antigen binding ELISA, human CTLA4-Fc coated; after protease digestion

Row | EC50 | Binder
20 | 0.67 nM | B17
21 | 0.62 nM | B18
22 | 0.62 nM | B19
23 | 0.57 nM | B20
24 | 0.67 nM | B21

— patent publication US20220073613A1 (XILIO DEVELOPMENT, published 2022)
